The record followed here is US20240327502A1 (Merck Sharp & Dohme, published 2024).

For one experiment, the target named is T1, hMPV PostF trimer (human metapneumovirus, strain B2).
T1 construct: also called MPV PostF (dPFv1)
Nature of the experiment: BLI, mAb on anti-human Fc sensor. (BLI is a label-free optical method that tracks binding on a fibre tip over time.)

Experiment [1] addresses T2, Processed stabilized hMPV PreF trimer (115BV) (human metapneumovirus, strain B2).
T2 construct: also called Processed hMPV PreF trimer; processed PreF
Nature of the experiment: BLI, ratio to unprocessed PreF trimer.

The target in experiment [2] is T3, Unprocessed hMPV PreF trimer (human metapneumovirus, strain B2).
T3 construct: also called Unprocessed hMPV WT PreF trimer; unprocessed hMPV PreF trimeric antigen
Nature of the experiment: BLI, mAb on anti-human Fc sensor.

Experiment [3] addresses T2, Processed stabilized hMPV PreF trimer …. Briefly: BLI, mAb on anti-human Fc sensor.

B1: M3A11 (antibody, V domains shown)
VH: EVQLVESGGGLVQPGGSLRLSCAASGFTFSDYSMNWVRQAPGQGLEWISYISSTGSTIYYADSVRGRFTISRDNAKNSLYLQMNTLRAEDTAVYYCARGKTTVTIWFDPWGQGTLVTVSS
VL: SYVLTQPPSVSVAPGQTARITCGGNNIGSKSVHWYQQKPGQAPVLVVYDDSDRPSGIPERFSGSNSGNTATLTISRVEAGDEADYYCQVWHSSSDWVFGGGTRLTVL
notes: IgG
Molecule B1 returned an Octet binding response in the experiment with hMPV PostF trimer of 0.414 nm.

B2: M2C11 (antibody, V domains shown)
VH: QVQLVQSGAEVRKPGASVKVSCKASGYTFTSHDINWVRQAPGQGLEWMGWMNPNSDTTGYAQKFQGRVTMARDISMSTAYMELSSLTSEDTAVYYCARGRHNYYTNGPTRDGFDIWGQGTMVTVSS
VL: SYELTQPPSVSVSPGQTATITCSGDDLGNQYANWFQQRPGQSPVLVIYQDNKRPSGIPERFSGSSSGNTATLTISGTQPLDEADYYCQAWDSRTYVFGTGTKVTVL
notes: IgG
Regarding B2, the “processed/unprocessed PreF trimer binding ratio” value in experiment [1] is 1.04. The Octet binding response with hMPV PostF trimer was -0.03 nm; in experiment [2], 0.349 nm; in experiment [3], 0.362 nm.

B3: M2B05 (antibody, V domains shown)
VH: QVQLQQWGAGLLRPSETLSLTCTVYGGSFGGYHWSWIRQSPGKGLEWIGEIDHGGNTNFNPSLKSRVTISVDRSKKQFSLKLTSVTAADTAVYYCARGFGVVINNWFDPWGQGTLVTVSS
VL: DIQMTQSPSSLSASVGDRVTITCRASQTINSYLNWYQQKPGKAPTLLIYTVSSLQSGVPSRFSGSGSGTVFSLTISSLQPEDFATYYCQQSYNSPYTFGQGTKLEIK
notes: IgG
With B3, the Octet binding response worked out at 0.486 nm with hMPV PostF trimer, 0.447 nm in experiment [2] and 0.542 nm in experiment [3].

B4: M3E05 (antibody, V domains shown)
VH: EVQLVESGGSVIQPGGSLRLSCAASGFSVRTNYMNWVRQAPGKGLEWVSVIYSDGRTYYSDSVKGRFTISRDNSMNNVFLQMNSLRAEDTAVYYCARDPTFYSSSWWYLDHWGQGTQVTVSS
VL: SYELTQALSVSVARGQTAKITCGGNNIGVRNVHWYQQKPGQAPVLVIYRDNIRPSGIPERFSGSNSGNMAALTISSAQEGDEADYYCQVWDSNTAHVIFGGGTKLTVL
notes: IgG
For B4, the Octet binding response in the experiment with hMPV PostF trimer stood at 0.509 nm; in experiment [2], 0.126 nm.

B5: M1C7 (antibody, V domains shown)
VH: QVQLVESGGGLVQPGRSLRLSCAASGFTFSSYAMHWVRQAPGKGLEWVAIITYDGSGKYYADSLEGRITISRDDPKSMLYLHMRSLTAEDTAVYYCVKSGSFSSAFWLEDWGQGTLVTVSS
VL: EIVLTQSPATLSLSPGERATLSCRASQSISNFVAWYQQKPGQAPRLLIYDASNGATGTPARFSGSGSGTDFTLTISSLEPEDFAVYYCQQRSTWTFGQGTKVEIKR
notes: IgG; also called MIC7
In the case of B5, the “processed/unprocessed PreF trimer binding ratio” value in experiment [1] came out at 1.15. Also, the Octet binding response is 0.0541 nm with hMPV PostF trimer, 0.312 nm in experiment [2] and 0.359 nm in experiment [3].

B6: M3E06 (antibody, V domains shown)
VH: EVQLVESGGGLVQPGGSLRLSCAASGFTFSSYWMSWVRQAPGKGLEWVANIKQDGSEKYYVDSVKGRFTISRDNAKNSLYLQMNSLRAEDTAVYYCARYYYDSSGYYYYYYYYMDVWGKGTTVTVSS
VL: not shown
notes: IgG
Regarding B6, the “processed/unprocessed PreF trimer binding ratio” value in experiment [1] worked out at 0.18. Also, the Octet binding response was determined as 0.329 nm with hMPV PostF trimer and 0.0101 nm in experiment [3].

B7: M4A10 (antibody, V domains shown)
VH: QVQLVQSGAEVKKPGASVKVSCKASGYTFNGHYLHWVRQAPGQGLEWMGWINPNSGGTDYAQRFQGRVTMTRGTSISTAYMELSRLTSDDTAVYFCARDNFGFWSASSGRHNWLDSWGQGTLVIVSS
VL: NFMLTQPHSVSESPGKTVTISCTRSTGNIASNYVQWYQQRPGSSPTTVIYEDNQRPSAVPDRFSGSIDSSSNSASLTVSGLRTEDEADYYCQSYDSGHHVVFGGGTKLTVL
notes: IgG
B7: the “processed/unprocessed PreF trimer binding ratio” value in experiment [1] was found to be 0.71. For the same molecule, the Octet binding response is -0.0388 nm with hMPV PostF trimer, 0.325 nm in experiment [2] and 0.23 nm in experiment [3].

B8: M4B03 (antibody, V domains shown)
VH: QVQLVQSGAEVKKPGASVKVSCKASGYIFSNYRMHWVRQAPGQRLEWMGWITAGSGNTRYSEQFQGRVAFTSDTDATTVSMELSGLRFEDTAVYFCAREYNWNDAFPYWGQGTLVIVSS
VL: SYVLTQPPSVSVAPGQTARIPCGGNNIGSKSVHWYQQKSGRAPVLVVYDDSDRPPGIPDRFSGSNSGNTATLTINKIEAGDEADYYCHVSDDNSDHVFFGGGTQLTVL
notes: IgG
Turning to B8, the “processed/unprocessed PreF trimer binding ratio” value in experiment [1] worked out at 0.33. Besides, the values for the Octet binding response (with hMPV PostF trimer; in experiment [2]; in experiment [3]) were -0.061 nm, 0.324 nm and 0.108 nm, respectively.

B9: M2C05 (antibody, V domains shown)
VH: EVQLLESGGGLVQPGGSLRLSCAGSGFTFSNYAMSWVRQAPGKGLEWVSDINDRGETTHYADSVKGRFTISRDNSKKKLFLQMNDLRAEDTAIYYCTRAYVVLSVYAPKGFDYWGQGTLVSVSS
VL: DIQMTQSPSILSASEGDRVTITCRASQSVSNWLAWYQQKSGRAPKLLIYKASSLETGVPSRFSGSGSGTEFTLTINNLQPDDFATYYCQHYNGYPYTFGQGTKLEIK
notes: IgG
On to B9, for which the “processed/unprocessed PreF trimer binding ratio” value in experiment [1] was 1.16. For the same molecule, the Octet binding response in experiment [2] was found to be 0.399 nm; in experiment [3], 0.464 nm.

B10: M2D08 (antibody, V domains shown)
VH: QVQLVESGGGVVQPGRSLRLSCAASGFVFRFSGMHWIRQAPGKGLQWVAHISDDGSQKYYADSVTGRFAISRDNSRNTLFLEMTGLRGDDTAVYYCARGDYGVSYFLAHWGLGELVIVSS
VL: EIVLTQSPATLSLSPGERATLSCRASQNIYNYLAWYQQKPGQAPRLVIYDASNRATGIPARFSGSGSETDFTLTISSLEPEDFAVYYCQQRSDWTFGQGTKLEIK
notes: IgG
Consider B10, for which the “processed/unprocessed PreF trimer binding ratio” value in experiment [1] is 0.44. Further, the Octet binding response was -0.0414 nm with hMPV PostF trimer, 0.416 nm in experiment [2] and 0.182 nm in experiment [3].

B11: M2B11 (antibody, V domains shown)
VH: QVQLVQSGTEVKKPGASVKVSCKASGYTFTSHDINWLRQATGQGLEWLGWMNPNSATTGYAQKFQGRVTLTRDISISTAYMELSSLRSDDTAVYYCARNRHYYYADGPTRDAFDIWGQGTVVTVSS
VL: SYELTQTPTVSVSPGQTASITCSGDELGHKYTSWYQQKPGQSPVLVVYQDTKRPSGIPERFSGSNSGNTATLTISGTQVMDEADYYCQAWDSGTVLLGGGTKLTVL
notes: IgG
As for B11, the “processed/unprocessed PreF trimer binding ratio” value in experiment [1] is 1.31. Further, the Octet binding response in the experiment with hMPV PostF trimer was -0.0289 nm; in experiment [2] it was 0.38 nm; in experiment [3], 0.498 nm.

B12: M2C08 (antibody, V domains shown)
VH: QVQLVQSGAEVKKPGASVIVSCRASGFTFSLYTMHWVRQAPGQGLEWMGWISADNSNTKYSQKYQDRVTITMDTSATTLFMEISSLRSEDTAVYYCTRGPAYYFDSSGFAFDIWGQGTLVTVSS
VL: EIVLTQSPGTLSLSPGERATLSCRASQSVSRTYLGWYQQRPGLAPRLLIYGTSSRATGIPDRFSGSGSGTDFTLTISRLEPEDFATYYCQHFGSSLTFGGGTKVEIK
notes: IgG
Turning to B12, in experiment [1], the “processed/unprocessed PreF trimer binding ratio” value worked out at 0.38. In addition, the figures for the Octet binding response (with hMPV PostF trimer; in experiment [2]; in experiment [3]) were -0.0185 nm, 0.415 nm and 0.157 nm, respectively.

B13: M2C01 (antibody, V domains shown)
VH: EVQLVESGGDLAKPGGSLRLSCEASGFTFSNAWMSWVRQAPGKGLEWVGQIKPHTDGATTDYAAPVKGRFTISRDDSKSTLYLRMNILRIEDTAMYYCTTGPRLSLMWGQGTRVTVSS
VL: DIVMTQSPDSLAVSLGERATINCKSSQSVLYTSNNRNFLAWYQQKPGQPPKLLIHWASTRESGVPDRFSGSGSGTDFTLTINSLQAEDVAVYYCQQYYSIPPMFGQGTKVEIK
notes: IgG
Turning to B13, the Octet binding response was -0.0726 nm in the experiment with hMPV PostF trimer and 0.107 nm in experiment [2].

B14: M3C01 (antibody, V domains shown)
VH: QLQLQESGPGLVKPSETLSLTCTVSGGSISSSSYFWGWIRQPPGKGLEWIGSVFYSGSTYYNPSLKSRVTISVDTPKNQFSLRLSSVTAADTAVYYCARHSWDRWVYWGQGTLVTVSS
VL: DIQMTQSPSSVSASVGDRVTITCRASQDISSWLAWYQQKPGKAPKLLIYAASSLQSGVPSRFSGSGSGTDFTLTISSLQPEDFATYYCQQANSFPLTFGGGTKVEIK
notes: IgG
Consider B14, for which the Octet binding response with hMPV PostF trimer was 0.327 nm; in experiment [2] it was 0.0597 nm.

B15: M3D08 (antibody, V domains shown)
VH: QVQLQESGPGLVKPSETLSLTCSVSGVSISSHYWSWIRQPAGKGLEWIGRLYTSGTTTYNPSLNSRVTMSVDTTNNRLSLRLTSVTAADTAVYYCARDVRLTVFGALHNWFDPWGQGILVTVSS
VL: DIQMTQSPSSLSASVGDRVTITCRASQSIGTHLNWYQQQRGRAPKLLVYAASGLQSGVPSRFSGSGSGTYFTLTISSLQPEDFATYYCQQSYSTPSITFGQGSRLDIK
notes: IgG
Take B15: in experiment [1], the “processed/unprocessed PreF trimer binding ratio” value turned out to be 0.17. For the same molecule, the values for the Octet binding response (with hMPV PostF trimer; in experiment [3]) were 0.307 nm and 0.0113 nm, respectively.

B16: M3C06 (antibody, V domains shown)
VH: QVQLVQSGAEVKKPGSSVKVSCKAYGGTLSNYAISWVRQAPGQGLHWMGRIIPVMNVANYADNFQGRVTITADKSTSTAYMELSSLRSEDAAIYYCATARGLGSLEGGDAFDVWGQGTMLTVSS
VL: DIVMTQSPDSVAVSLGERATISCKSSLSLLYSSNNKNYLVWYQQKPGQPPKLLFYWASTRESGVPDRFSASGSGTDFTLTISSLQAEDVAVYYCQQYYSTPITFGQGTRLEIR
notes: IgG
For B16, the “processed/unprocessed PreF trimer binding ratio” value in experiment [1] was determined as 0.93. Also, the figures for the Octet binding response (with hMPV PostF trimer; in experiment [2]; in experiment [3]) were -0.0338 nm, 0.208 nm and 0.195 nm, respectively.

B17: M3A05 (antibody, V domains shown)
VH: QITLKESGPTLVKPTQTLTLTCTFSGFSLNTGGVSVGWIRQPPGKALEWLALIYWDGDKRYSPSLKSRLTITKDTSKNQVVFTMTNMDPVDTATYYCAHRENSAYIDFWGQGTLVTVSS
VL: QSVLTQPPSVSAAPGQKVTISCSGSSSNIGNNYVSWYQQLPGAAPKLLIYDNNKRPSGIPDRFSGSKSGTSASLGITGLQTGDEADYYCGTWDSSLSVGFYVFGTGTKVTVL
notes: IgG
Consider B17, for which the “processed/unprocessed PreF trimer binding ratio” value in experiment [1] worked out at 0.09. The Octet binding response came out at 0.229 nm with hMPV PostF trimer and 0.0071 nm in experiment [3].
